Consider one substance from US20130081152.

The test system of this data set is T1, His-tagged recombinant PbGDPS_SSU (expressed in E. coli from pET15b).
T1 sequence: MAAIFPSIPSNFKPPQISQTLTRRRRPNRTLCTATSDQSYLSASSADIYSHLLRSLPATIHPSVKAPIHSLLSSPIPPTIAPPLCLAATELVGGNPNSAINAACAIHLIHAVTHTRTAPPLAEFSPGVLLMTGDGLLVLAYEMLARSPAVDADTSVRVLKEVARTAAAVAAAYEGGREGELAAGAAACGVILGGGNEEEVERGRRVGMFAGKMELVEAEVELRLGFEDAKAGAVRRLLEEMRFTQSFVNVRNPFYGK

On to “His-tagged recombinant PbGDPS_LSU (truncated, expressed in E. coli from pBAD202/D-TOPO)”, for which the prenyltransferase activity result is on record as “higher prenyltransferase activity than either PbGDPS_LSU or PbGDPS_SSU alone”.
